Results from patent US20190330323A1 (UCB, published 2019).

B1: human Gremlin-1 (recombinant, full length) (ligand)
chain: KKKGSQGAIPPPDKAQHNDSEQTQSPQQPGSRNRGRGQGRGTAMPGEEVLESSQEALHVTERKYLKRDWCKTQPLKQTIHEEGCNSRTIINRFCYGQCNSFYIPRHIRKEEGSFQSCSFCKPKKFTTMMVTLNCPELQPPTKKKRVTRVKQCRCISIDLD

Assays:
Assay in all cases: cell-based or functional assay
mouse Gremlin = molecular target: T1, mouse Gremlin (mouse, UniProt O70326 25-184)
T1 sequence (looked up): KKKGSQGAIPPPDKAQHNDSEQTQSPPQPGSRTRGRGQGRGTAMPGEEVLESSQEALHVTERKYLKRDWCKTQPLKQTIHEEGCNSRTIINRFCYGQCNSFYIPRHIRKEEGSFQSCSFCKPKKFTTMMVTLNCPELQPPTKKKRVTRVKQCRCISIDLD

[1] = molecular target: B1
BMP4/7 heterodimer [2] = molecular target: T2, BMP4/7 heterodimer (human, UniProt P12644 293-408; P18075 293-431)
T2 sequence (looked up) 1: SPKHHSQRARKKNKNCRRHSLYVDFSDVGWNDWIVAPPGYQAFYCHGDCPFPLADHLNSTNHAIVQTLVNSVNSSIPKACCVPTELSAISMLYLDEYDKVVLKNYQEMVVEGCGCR
T2 sequence (looked up) 2: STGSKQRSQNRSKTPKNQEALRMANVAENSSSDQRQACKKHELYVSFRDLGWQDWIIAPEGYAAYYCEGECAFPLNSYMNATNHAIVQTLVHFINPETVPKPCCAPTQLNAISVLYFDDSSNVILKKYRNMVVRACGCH

BMP4/7 heterodimer [3] = molecular target: T2, BMP4/7 heterodimer; remark: listed apart in the source

Binder | IC50, restoration of BMP signalling, Hek-Id1 reporter gene assay (mouse Gremlin) [nM] | IC50, restoration of BMP signalling, Hek-Id1 reporter gene assay [1] [nM] | IC50, Geometric mean (nM), Hek-Id1 reporter gene assay, N = 2 (BMP4/7 heterodimer [2]) [nM] | IC50 (read off the curve) [B] (BMP4/7 heterodimer [3]) [nM]
Ab7326 (as tested in the screening assays of Example 5) (antibody, V domains shown) VH: QVQLVESGAEVKKPGATVKISCKVSGYTFTDYYMHWVQQAPGKGLEWMGLVDPEDGETIYAEKFQGRVTITADTSTDTAYMELSSLRSEDTAVYYCATDARGSGSYYPNHFDYWGQGTLVTVSS VL: not shown | 0.2 | 1.3 | – | –
B1 | – | – | 1.6 | –
truncated human Gremlin-1 (E. coli, refolded, N-terminal 6His-TEV tag) (ligand) MGSSHHHHHHSSGENLYFQGSAMPGEEVLESSQEALHVTERKYLKRDWCKTQPLKQTIHEEGCNSRTIINRFCYGQCNSFYIPRHIRKEEGSFQSCSFCKPKKFTTMMVTLNCPELQPPTKKKRVTRVKQCRCISIDLD | – | – | 1.7 | ~3
